Consider one protein from patent US6960440 (TRUSTES OF COLUMBIA UNIVERSITY IN THE CITY OF NEW YORK, dated 2005).

The series deals with the molecule itself. Kind of series: SDS-PAGE and Western blot of NADE overexpressed in 293T cells, wild type against Cys-to-Ser mutants. A general note: In western blotting, separated proteins are transferred to a membrane and probed.

B1: Myc-tagged mouse NADE expressed in 293T cells (pcDNA3.1(-)Myc-HisA/NADE) (other, not shown: small tags and cut ends)
chain: MANVHQENEEMEQPLQNGEEDRPVGGGEGHQPAGNNNNNNHNHNHNHHRRGQARRLAPNFRWAIPNRQMNDGLGGDGDDMEMFMEEMREIRRKLRELQLRNCLRILMGELSNHHDHHDEFCLMP
notes: It runs as 22 kDa and 44 kDa bands; also called Myc-tagged NADE; wild type NADE
In the case of B1, the binding result was “binds”.
